Test results reported in paper doi:10.1101/689042v1.

Tests used:
purified protein [1] = substrate: OC[C@@H](O)[C@@H](O)[C@H](O)[C@@H](O)CO; test: purified protein; type: biochemical, Sinorhizobium meliloti; conditions: 1.5 mM NAD+, 20 mM CAPS pH 11
purified protein [2] = substrate: OC[C@@H](O)[C@H](O)[C@H](O)[C@@H](O)CO; test: purified protein; type: biochemical, Sinorhizobium meliloti; conditions: 1.5 mM NAD+, 20 mM CAPS pH 11

B1: SmoS (SmSmoS) (Sinorhizobium meliloti 1021) (protein)
chain: MKRLEGKSALITGSARGIGRAFAEAYVREGATVAIADIDIERARQAAAEIGPAAYAVQMDVTRQDSIDAAIAATVEHAGGLDILVNNAALFDLAPIVEITRESYEKLFAINVAGTLFTLQAAARQMIAQGRGGKIINMASQAGRRGEALVAIYCATKAAVISLTQSAGLDLIKHRINVNAIAPGVVDGEHWDGVDALFARYENRPRGEKKRLVGEAVPFGRMGTAEDLTGMAIFLASAESDYIVSQTYNVDGGNWMS
- Km (purified protein [1]): 2500 µM
- kcat (purified protein [1]): 25625.6 s⁻¹
- Km (purified protein [2]): 1200 µM
- kcat (purified protein [2]): 3227.1 s⁻¹
